Experimental data from patent publication US20210032312A1 (Janssen / Centocor, published 2021).

Tests used:
In house human CD8A-Fc = target: T1, In house human CD8A-Fc (human, UniProt P01732 22-182, limits assumed); test: SPR (ProteOn), captured hCD8A-Fc
T1 construct: Captured on goat anti-human Fc on a ProteOn GLC chip; also called hCD8A-Fc; recombinant human CD8 alpha; not shown: linker with flag (and polyhistidine) tag and Fc of human IgG1
Description: Purified anti-CD8A FN3 domains were subjected to off-rate analysis using a Proteon surface plasmon resonance instrument in order to pick clones with the slowest off-rates for further characterization.
The immobilized GAH-Fc IgG densities averaged about 6000 Response Units (Ru) with less than 1% variation among different channels. In house human CD8A-Fc was captured in vertical orientation at 3 different ligand densities, 10, 5, 2.5 μg/ml for 5 minutes at 30 ul/minute flowrate. All FN3 domains were normalized to a 3 μM concentration, and tested for binding in horizontal orientation. All 6 analyte channels were used for FN3 domains to maximize the screening throughput. The dissociation phase was monitored for 15 minutes at a flow rate of 100 μl/min using PBST as running buffer. […] Data analyses were performed using Bio-Rad ProteOn Manager software (version 3.1.0.6). Raw data were double referenced by subtraction of the interspot (empty chip surface, no protein immobilized or captured) signals to correct the non-specific binding of the FN3 domain to the pre-coated GAH-Fc IgG surface, followed by a double correction using empty channel L6 where no hCD8A-Fc was captured. The processed binding data were locally fit to a 1:1 simple Langmuir binding model to extract the koff for each FN3 domain binding to captured hCD8A-Fc.

[1] = target: T2, cynomolgus monkey CD8A on primary cynomolgus monkey CD8+ T cells (cynomolgus monkey, UniProt P01732 23-235 (human entry)); test: flow cytometry, cyno CD8+ T cells, 2 uM FN3
T2 construct: also called Cyno CD8alpha
T2 sequence (P01732 other isoform, or with tags, fused parts or gaps limits assumed): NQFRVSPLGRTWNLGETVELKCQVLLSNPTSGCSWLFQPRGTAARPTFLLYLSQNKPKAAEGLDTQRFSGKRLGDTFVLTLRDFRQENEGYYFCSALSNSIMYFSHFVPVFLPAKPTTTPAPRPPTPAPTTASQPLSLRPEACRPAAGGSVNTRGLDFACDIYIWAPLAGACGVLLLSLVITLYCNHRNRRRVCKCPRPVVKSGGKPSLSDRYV
Description: (§1) Binding of the 190 ELISA hits to human and cynomologous monkey primary CD8 T cells was assessed by flow cytometry. The FN3 domain molecules were diluted to 2 μM and 0.2 μM in PBS and incubated with human or cynomologous monkey CD8+ T cells in 96-well format. After 1 hour at 4 C, the cells were washed once with PBS and then resuspended with an anti-FN3 domain antibody (PAB25) solution. Following this incubation, the cells were washed twice with PBS and a PE conjugated secondary antibody and a viability dye were added. Finally, cells were washed and resuspended in PBS for flow cytometric analysis using a BD Canto Instrument. Cells were gating on live cells and median fluorescence intensity of the bound Centyrins (PE channel) was calculated using Cytobank software.

[2] = target: T2, cynomolgus monkey CD8A on primary …; test: flow cytometry, cyno CD8+ T cells, 0.2 uM FN3
Description: as §1

[3] = target: T3, human CD8 alpha (CD8A) on primary human CD8+ T cells (human, UniProt P01732 22-235); test: flow cytometry, human CD8+ T cells, 0.2 uM FN3
T3 construct: whole, on cells; also called hCD8A
T3 sequence (P01732 22-235): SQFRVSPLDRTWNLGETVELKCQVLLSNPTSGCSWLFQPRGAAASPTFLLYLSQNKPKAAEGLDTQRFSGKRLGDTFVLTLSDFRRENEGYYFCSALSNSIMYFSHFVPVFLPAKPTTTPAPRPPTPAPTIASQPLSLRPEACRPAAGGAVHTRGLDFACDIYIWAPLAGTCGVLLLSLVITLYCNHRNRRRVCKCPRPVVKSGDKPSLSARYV
Description: as §1

[4] = target: T3, human CD8 alpha (CD8A) on primary human …; test: flow cytometry, human CD8+ T cells, 2 uM FN3
Description: as §1

T1 sequence (P01732 22-182 limits assumed): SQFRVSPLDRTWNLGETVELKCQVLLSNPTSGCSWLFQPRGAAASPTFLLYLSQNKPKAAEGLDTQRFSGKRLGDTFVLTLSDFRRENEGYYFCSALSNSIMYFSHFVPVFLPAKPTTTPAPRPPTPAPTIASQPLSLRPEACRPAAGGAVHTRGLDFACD

| Binder | koff (In house human CD8A-Fc) [s⁻¹] | Cyno T-cell Binding 2 uM (MFI) [1] [MFI] | Cyno T-cell Binding 0.2 uM (MFI) [2] [MFI] | Human T-cell Binding 0.2 uM (MFI) [3] [MFI] | Human T-cell Binding 2 uM (MFI) [4] [MFI] |
| --- | --- | --- | --- | --- | --- |
| P282BR9P1357_D12 (designed binder, FN3 domain) LPAPKNLVVSRVTEDSARLSWGQYITAFSFDSFLIQYQESEKVGEAIVLTVPGSERSYDLTGLKPGTEYTVSIYGVDVAWFQGKPTWSNPLSAIFTT | 8.76e-05 | 40400 | 7360 | 3900 | 15300 |
| P283AR9P1362_F12 (designed binder, FN3 domain) LPAPKNLVVSRVTEDSARLSWARNITSFDSFLIQYQESEKVGEAIVLTVPGSERSYDLTGLKPGTEYTVSIYGVDVKYDIDSRPISSNPLSAIFTT | 7.28e-05 | 26300 | 3790 | 2620 | 8970 |
| P283AR9P1362_G11 (designed binder, FN3 domain) LPAPKNLVVSRVTEDSARLSWRKEATSFDSFLIQYQESEKVGEAIVLTVPGSERSYDLTGLKPGTEYTVSIYGVDVKYDIDSRPISSNPLSAIFTT | 0.000102 | 32500 | 6830 | 3530 | 12700 |
| P282BR9P1357_A9 (designed binder, FN3 domain) LPAPKNLVVSRVTEDSARLSWKANRTTDLHFDSFLIQYQESEKVGEAIVLTVPGSERSYDLTGLKPGTEYTVSIYGVDVQYDGQQPLYSNPLSAIFTT | 0.00059 | 7280 | 1940 | 1070 | 3120 |
| P282BR9P1357_B2 (designed binder, FN3 domain) LPAPKNLVVSRVTEDSARLSWNPSEDPQRFDSFLIQYQESEKVGEAIVLTVPGSERSYDLTGLKPGTEYTVSIYGVDVKWEGNRPVASNPLSAIFTT | 0.0001 | 18000 | 3840 | 2880 | 5930 |
| P282BR9P1357_C10 (designed binder, FN3 domain) LPAPKNLVVSRVTEDSARLSWWSNDNRPIFDSFLIQYQESEKVGEAIVLTVPGSERSYDLTGLKPGTEYTVSIYGVDVKWEGNRPVASNPLSAIFTT | 0.000458 | 24500 | 5110 | 2900 | 9780 |
| P282DR9P1359_F5 (designed binder, FN3 domain) LPAPKNLVVSRVTEDSARLSWTAPDAAFDSFQIAYPEWPPPGEAIVLTVPGSERSYDLTGLKPGTEYFVIIQGVKGGVESWPLSAIFTT | 9.02e-05 | 114000 | 34700 | 8480 | 48900 |
| P282CR9P1358_C5 (designed binder, FN3 domain) LPAPKNLVVSRVTEDSARLSWTAPDAAFDSFLIAYPEWPDSGEAIVLTVPGSERSYDLTGLKPGTEYAVFIWGVKGGPLSHPLSAIFTT | 0.000999 | 25700 | 1830 | 511 | 2710 |
| P282CR9P1358_D10 (designed binder, FN3 domain) LPAPKNLVVSRVTEDSARLSWTAPDAAFDSFLISYPEYPPPGEAIVLTVPGSERSYDLTGLKPGTEYFVIIFGVKGGDTSWPLSAIFTT | 0.000311 | 74100 | 4070 | 2760 | 28600 |
| P282CR9P1358_C2 (designed binder, FN3 domain) LPAPKNLVVSRVTEDSARLSWTAPDAAFDSFKIAYPEWPSNGEAIVLTVPGSERSYDLTGLKPGTEYAVFIWGVKGGAFSNPLSAIFTT | 0.00113 | 55800 | 7050 | 1060 | 10100 |
| P283BR9P1363_C8 (designed binder, FN3 domain) LPAPKNLVVSRVTEDSARLSWAKTSDLHPLFDSFLIQYQESEKVGEAIVLTVPGSERSYDLTGLKPGTEYTVSIYGVDVKWEGNRPVASNPLSAIFTT | 0.000335 | 37200 | 9080 | 3740 | 16500 |
| P283BR9P1363_E4 (designed binder, FN3 domain) LPAPKNLVVSRVTEDSARLSWIKSETSQPAFDSFLIQYQESEKVGEAIVLTVPGSERSYDLTGLKPGTEYTVSIYGVDVKWEGNRPVASNPLSAIFTT | 0.000329 | 17700 | 2470 | 2500 | 10800 |
| P283BR9P1363_B6 (designed binder, FN3 domain) LPAPKNLVVSRVTEDSARLSWQRHSDAHPLFDSFLIQYQESEKVGEAIVLTVPGSERSYDLTGLKPGTEYTVSIYGVDVKWEGNRPVASNPLSAIFTT | 0.000269 | 37700 | 6840 | 3450 | 14500 |
| P282BR9P1357_C4 (designed binder, FN3 domain) LPAPNNLVVSRVTEDSARLSWPFVSQNKPHFDSFLIQYQESEKVGEAIVLTVPGSERSYDLTGLKPGTEYTVSIYGVDVKWEGNRPVASNPLSAIFTT | 0.000127 | 41600 | 7060 | 4220 | 16800 |
| P282BR9P1357_H3 (designed binder, FN3 domain) LPAPKNLVVSRVTEDSARLSWKKREYQDPGFDSFLIQYQESEKVGEAIVLTVPGSERSYDLTGLKPGTEYTVSIYGVDVKWEGNRPVASNPLSAIFTT | 0.000285 | 27100 | 5700 | 3030 | 11100 |
| P282BR9P1357_D2 (designed binder, FN3 domain) LPAPKNLVVSRVTEDSARLSWIKDGHPRHFDSFLIQYQESEKVGEAIVLTVPGSERSYDLTGLKPGTEYTVSIYGVDVVYDRGQLISSNPLSAIFTT | 0.00105 | 25800 | 2520 | 1570 | 9610 |
| P283BR9P1363_A10 (designed binder, FN3 domain) LPAPKNLVVSRVTEDSARLSWQRADDILPYFDSFLIQYQESEKVGEAIVLTVPGSERSYDLTGLKPGTEYTVSIYGVDVKYDIDSRPISSNPLSAIFTT | 0.00036 | 27800 | 4100 | 2750 | 7890 |
| P282BR9P1357_G9 (designed binder, FN3 domain) LPAPKNLVVSRVTEDSARLSWPIASQIHSPFDSFLIQYQESEKVGEAIVLTVPGSERSYDLTGLKPGTEYTVSIYGVDVKYDIDSRPISSNPLSAIFTT | 0.000304 | 41500 | 4640 | 2800 | 12700 |
| P283BR9P1363_B2 (designed binder, FN3 domain) LPAPKNLVVSRVTEDSARLSWASTVDPHPRFDSFLIQYQESEKVGEAIVLTVPGSERSYDLTGLKPGTEYTVSIYGVDVKYDIDSRPISSNPLSAIFTT | 0.000208 | 14800 | 2820 | 2400 | 8360 |
| P282BR9P1357_E5 (designed binder, FN3 domain) LPAPKNLVVSRVTEDSARLSWWPRKYQRPFDSFLIQYQESEKVGEAIVLTVPGSERSYDLTGLKPGTEYTVSIYGVDIEWIGNRPIASNPLSAIFTT | 0.00021 | 10600 | 4100 | 2590 | 6730 |
